Test results published in publication PMC5774586.

B1: FOXA1-Venus, P55317 1-472 (natural protein)
chain: MLGTVKMEGHETSDWNSYYADTQEAYSSVPVSNMNSGLGSMNSMNTYMTMNTMTTSGNMTPASFNMSYANPGLGAGLSPGAVAGMPGGSAGAMNSMTAAGVTAMGTALSPSGMGAMGAQQAASMNGLGPYAAAMNPCMSPMAYAPSNLGRSRAGGGGDAKTFKRSYPHAKPPYSYISLITMAIQQAPSKMLTLSEIYQWIMDLFPYYRQNQQRWQNSIRHSLSFNDCFVKVARSPDKPGKGSYWTLHPDSGNMFENGCYLRRQKRFKCEKQPGAGGGGGSGSGGSGAKGGPESRKDPSGASNPSADSPLHRGVHGKTGQLEGAPAPGPAASPQTLDHSGATATGGASELKTPASSTAPPISSGPGALASVPASHPAHGLAPHESQLHLKGDPHYSFNHPFSINNLMSSSEQQHKLDFKAYEQALQYSPYGSTLPASLPLGSASVTTRSPIEPSALEPAYYQGVYSRPVLNTS

Key:
[1] = molecular target: FOXA1-Venus (UniProt P55317); experiment: FRET or BRET
[2] = molecular target: T1, ESR1-Cerulean, P03372; experiment: FRET or BRET; settings: remark: other sources report otherwise
T1 chain: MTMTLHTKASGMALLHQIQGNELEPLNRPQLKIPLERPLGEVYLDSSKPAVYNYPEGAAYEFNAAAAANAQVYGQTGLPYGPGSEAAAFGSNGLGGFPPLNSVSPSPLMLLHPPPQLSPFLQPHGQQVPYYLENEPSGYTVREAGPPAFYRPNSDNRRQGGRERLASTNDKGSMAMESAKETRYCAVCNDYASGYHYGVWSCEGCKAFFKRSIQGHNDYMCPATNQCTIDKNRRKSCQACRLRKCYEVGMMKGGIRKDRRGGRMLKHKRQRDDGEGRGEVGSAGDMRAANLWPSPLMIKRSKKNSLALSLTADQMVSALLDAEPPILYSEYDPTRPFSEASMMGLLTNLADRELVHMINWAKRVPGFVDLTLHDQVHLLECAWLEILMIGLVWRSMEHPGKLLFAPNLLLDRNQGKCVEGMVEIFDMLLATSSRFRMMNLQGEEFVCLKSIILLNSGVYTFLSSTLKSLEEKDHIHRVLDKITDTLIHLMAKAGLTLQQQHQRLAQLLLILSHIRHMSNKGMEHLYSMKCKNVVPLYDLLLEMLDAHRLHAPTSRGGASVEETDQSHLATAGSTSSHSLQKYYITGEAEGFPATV

| FRET efficiency [1] | FRET efficiency [2] | Molecule |
| --- | --- | --- |
| 0.055 | – | NFIB-Cerulean (from UniProt O00712 1-420) (natural protein) |
| – | 0.139 | B1 |
